The target of experiment [1] is T1, human CD16A-158V expressed on CHO-K1 cells (human, UniProt P08637 17-254).
T1 construct: whole, on cells; also called hCD16A-158V; CHO-K1-hCD16A-158V
The experiment in a line: flow cytometry, CHO-K1-hCD16A-158V cells, geometric mean.

Experiment [2] deals with T2, human CD16A-158F expressed on CHO-K1 cells (human, UniProt P08637 17-254).
T2 construct: whole, on cells
Briefly: flow cytometry, CHO-K1-hCD16A-158F cells, geometric mean. On the technique in general: A flow cytometer gives signals particle by particle.

The target of experiment [3] is T3, human GPC3 on HepG2 cells (human, UniProt P51654 25-554).
T3 construct: whole, on cells; also called GPC3-positive HepG2 cells
T3 sequence (P51654 25-554 limits assumed): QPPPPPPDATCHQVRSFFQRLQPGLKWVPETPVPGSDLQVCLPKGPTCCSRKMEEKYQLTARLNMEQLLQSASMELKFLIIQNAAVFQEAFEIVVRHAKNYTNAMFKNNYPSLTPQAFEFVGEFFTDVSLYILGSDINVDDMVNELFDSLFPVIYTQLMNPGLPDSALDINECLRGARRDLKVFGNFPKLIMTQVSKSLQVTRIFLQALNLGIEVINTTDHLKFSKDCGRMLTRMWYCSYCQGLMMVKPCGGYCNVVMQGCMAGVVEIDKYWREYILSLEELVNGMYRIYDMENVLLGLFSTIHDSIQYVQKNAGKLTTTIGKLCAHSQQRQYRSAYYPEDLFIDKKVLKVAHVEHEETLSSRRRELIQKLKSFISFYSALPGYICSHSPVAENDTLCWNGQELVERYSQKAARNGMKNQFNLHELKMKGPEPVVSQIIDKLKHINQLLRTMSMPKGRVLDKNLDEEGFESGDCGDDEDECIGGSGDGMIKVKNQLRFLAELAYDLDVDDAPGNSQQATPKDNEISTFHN
Briefly: flow cytometry, HepG2 cells (GPC3 positive), geometric mean.

In experiment [4] the target is T4, hCD16A-158F-his protein (human, UniProt P08637 17-208).
T4 construct: Bought protein
T4 sequence (P08637 17-208 limits assumed): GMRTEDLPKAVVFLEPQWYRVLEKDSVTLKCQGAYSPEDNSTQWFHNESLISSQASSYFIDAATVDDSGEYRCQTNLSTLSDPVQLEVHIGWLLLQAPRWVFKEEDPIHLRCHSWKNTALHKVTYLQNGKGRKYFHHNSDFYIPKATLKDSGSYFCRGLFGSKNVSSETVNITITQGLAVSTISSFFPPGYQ
The experiment in a line: ELISA, plate-coated his-tagged antigen 2 ug/mL. The method, then:
(§1) In order to determine the binding ability of the chimeric Abs to human CD16A protein, ELISA-based binding assay was performed as followed. […] The mixture was incubated for 1 hour at room temperature (RT). The primary antibody was recognized by a detective antibody against human IgG Fc which was conjugated with horseradish peroxidase (HRP) (Jackson Immuno, Cat. No. 109-035-008). Tetramethylbenzidine (TMB), a substrate of HRP, was added to the wells to visualize the binding signal. After sufficient color development, stop solution was added to the wells. The absorbance of the signal was detected at 450 nm with Envision multilabel plate readers (PerkinElemer). The graph and statistics analysis were generated with four-parameter nonlinear regression curve fit in Graphpad Prism 9 software.
(§2) In order to determine the cross reactivity of the chimeric Abs to cynomolgus CD16, ELISA binding assay was performed as described above. Recombinant cyno CD16 ECD his tag protein (cynoCD16-his, Acro Bio, Cat. No. FC6-C52H9) was used as the coating antigen at 2 μg/mL.
For orientation: In an ELISA, binding on a coated surface is turned into a signal by an enzyme label.

For experiment [5], the target named is T5, hCD16A-158V-his protein (human, UniProt P08637 17-208).
T5 construct: extracellular domain; Bought protein; also called human CD16A-158V-his; Human CD16A-158V (protein)
T5 sequence (P08637 17-208 F176V): as the sequence (P08637 17-208 limits assumed) above, with F160V counted along it
The experiment in a line: ELISA, plate-coated his-tagged antigen 2 ug/mL. Here is the method: as §1, §2

Experiment [6] concerns the target T6, human CD32B expressed on CHO-K1 cells (human, UniProt P31994 43-310).
T6 construct: whole, on cells; also called hCD32B
T6 sequence (looked up): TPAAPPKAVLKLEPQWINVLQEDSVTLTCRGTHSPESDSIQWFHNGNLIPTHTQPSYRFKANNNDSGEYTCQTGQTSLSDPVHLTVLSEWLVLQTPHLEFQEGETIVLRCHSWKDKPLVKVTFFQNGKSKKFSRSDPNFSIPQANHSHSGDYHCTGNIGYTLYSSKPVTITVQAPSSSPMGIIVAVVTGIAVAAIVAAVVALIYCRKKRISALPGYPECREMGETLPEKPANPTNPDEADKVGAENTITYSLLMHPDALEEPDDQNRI
The experiment in a line: flow cytometry, CHO-K1-hCD32B cells, geometric mean. The method, then:
(§3) In order to evaluate the binding activity of the chimeric mAbs to human CD16A expressed on cells, cell-based binding assay was employed as followed. […] The antibody dilutions were incubated with 1×10⁵ indicated cells in the 96-well microplate for one hour at 4° C. The antibodies binding to the antigen on the cell surface were detected with PE fluorophore-conjugated anti-human IgG Fc secondary antibodies (ThermoFisher scientific, Cat. No. 12-4998-82) at a dilution rate of 1:1000. Cells were analyzed by flow cytometer LSRFortessa Cell Analyzer (BD Biosciences). Data were analyzed with Flowjo 10.0 software. The graph and statistics analysis were generated with four-parameter nonlinear regression curve fit in Graphpad Prism 9 software.
(§4) To exclude the non-specific binding of the CD16A chimeric antibody to human CD16B and CD32B expressed on cells, cell-based binding assay was performed as described above. Firstly, CHO-K1 cells were stably transferred with one human CD16B spliced isoform hCD16B-NA1 and human CD32B. Then, the cells were incubated with the indicated concentrations of CD16A chimeric antibodies.

Experiment [7] concerns the target T4, hCD16A-158F-his protein. Briefly: SPR (Biacore 8K), antibody captured on Protein A chip, antigen at 50 nM. Here is the method:
(§5) The binding affinity of the chimeric antibodies to human CD16A was determined with Biacore™. Briefly, the antibodies were captured with a Protein A chip. […] The antigen was allowed to dissociate for 500 s. The experiment was carried out on a Biacore™ 8K. Data analysis was carried out using Biacore™ 8K evaluation software.

Experiment [8] has as its target T5, hCD16A-158V-his protein. The description is as above. Here is the method: as §5
The target of experiment [9] is T7, human CD16B-NA1 ECD his tag protein (human, UniProt O75015 17-200).
T7 construct: extracellular domain; Bought protein; also called hCD16B-NA1-his; hCD16B-NA1 protein
T7 sequence (O75015 other isoform, or with tags, fused parts or gaps limits assumed): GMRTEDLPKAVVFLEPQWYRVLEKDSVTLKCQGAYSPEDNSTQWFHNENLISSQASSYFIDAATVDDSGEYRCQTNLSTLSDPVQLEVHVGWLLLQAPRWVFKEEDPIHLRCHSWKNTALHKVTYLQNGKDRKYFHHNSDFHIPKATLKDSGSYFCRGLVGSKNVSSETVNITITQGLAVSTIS
Briefly: ELISA, hCD16B-NA1-his coated at 2 ug/mL, OD450. The method, then: as §1
(§6) In order to determine the binding ability of the chimeric Abs to human CD16B protein, ELISA binding assay was performed as previously described. Three spliced isoforms of CD16B including human CD16B-NA1 ECD his tag protein (hCD16B-NA1-his, Acro Bio, Cat: No. CDB-H5227), human CD16B-NA2 ECD his tag protein (hCD16B-NA2-his, Acro Bio, Cat: No. CDB-H82Ea) and human CD16B-SH-his protein, were used as the coating antigens at 2 μg/mL.

The target in experiment [10] is T8, human CD16B-NA1 expressed on CHO-K1 cells (human, UniProt O75015 17-200).
T8 construct: whole, on cells; also called hCD16B-NA1; CHO-K1-hCD16B-NA1
T8 sequence (O75015 other isoform, or with tags, fused parts or gaps): as the sequence (O75015 other isoform, or with tags, fused parts or gaps limits assumed) above
The experiment in a line: flow cytometry, CHO-K1-hCD16B-NA1 cells, geometric mean. The method, then:
as §3, §4

Experiment [11] has as its target T1, human CD16A-158V expressed on CHO-K1 …. The experiment in a line: flow cytometry on antigen-expressing CHO-K1 cells. The method, then: as §3
(§7) CHO-K1 cells stably expressing cynomolgus CD16 were used in the following test.

The target in experiment [12] is T2, human CD16A-158F expressed on CHO-K1 …. The experiment in a line: flow cytometry on antigen-expressing CHO-K1 cells. Here is the method: as §3, §7
Experiment [13] concerns the target T9, human CD16B-NA2 ECD his tag protein (human, UniProt O75015 17-200).
T9 construct: extracellular domain; Bought protein; also called hCD16B-NA2-his; hCD16B-NA2 protein
The experiment in a line: ELISA, hCD16B-NA2-his coated at 2 ug/mL, OD450. The method, then: as §1, §6

T2 sequence (P08637 17-254): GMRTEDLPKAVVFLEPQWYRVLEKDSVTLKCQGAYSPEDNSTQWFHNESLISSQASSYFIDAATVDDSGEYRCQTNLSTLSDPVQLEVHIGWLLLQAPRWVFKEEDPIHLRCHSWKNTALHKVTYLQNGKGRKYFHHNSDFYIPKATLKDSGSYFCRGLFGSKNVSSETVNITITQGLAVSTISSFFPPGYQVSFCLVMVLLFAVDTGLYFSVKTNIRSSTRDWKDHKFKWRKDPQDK
T1 sequence (P08637 17-254 F176V): as the sequence (P08637 17-254) above, with F160V counted along it
T9 sequence (O75015 17-200 N65S limits assumed): as the sequence (O75015 other isoform, or with tags, fused parts or gaps limits assumed) above, with R20S, N49S, D66N, V90I counted along it

B1: GPC3-45H6E8-z19p1-hIgG1LALAPG (bispecific antibody)
heavy chain (anti-GPC3 heavy chain hIgG1 LALAPG, (G4S)4 linker, 45H6E8-z19p1 scFv): QVQLVQSGAEVKKPGASVKVSCKASGYTFTDYEMHWVRQAPGQGLEWMGAIHPGSGGTAYNQKFKGRVTMTRDTSTSTVYMELSSLRSEDTAVYYCARYYSYAYWGQGTLVTVSSASTKGPSVFPLAPSSKSTSGGTAALGCLVKDYFPEPVTVSWNSGALTSGVHTFPAVLQSSGLYSLSSVVTVPSSSLGTQTYICNVNHKPSNTKVDKKVEPKSCDKTHTCPPCPAPEAAGGPSVFLFPPKPKDTLMISRTPEVTCVVVDVSHEDPEVKFNWYVDGVEVHNAKTKPREEQYNSTYRVVSVLTVLHQDWLNGKEYKCKVSNKALGAPIEKTISKAKGQPREPQVYTLPPSREEMTKNQVSLTCLVKGFYPSDIAVEWESNGQPENNYKTTPPVLDSDGSFFLYSKLTVDKSRWQQGNVFSCSVMHEALHNHYTQKSLSLSPGKGGGGSGGGGSGGGGSGGGGSQVQLVQSGAEVKKPGASVKVSCKVSGYTLTDYYMQWVRQAPGKGLEWIGWIDPEQGDTEYAPKFQGRVTMTADTSTDTAYMELSSLRSEDTAVYYCTTGGNYVDWGQGTTVTVSSGGGGSGGGGSGGGGSDIQMTQSPSFLSASVGDRVTITCKASQNVGTAVAWYQQKPGKAPKLLIYSASNRYTGVPDRFSGSGSGTDFTLTISSLQPEDFATYFCQQYSSYPLLTFGQGTRLEIK
light chain: DIVMTQTPLSLSVTPGQPASISCRSSQSLVHSNGNTYLQWYLQKPGQSPQLLIYKVSNRFSGVPDRFSGSGSGTDFTLKISRVEAEDVGVYYCFQSIHVPYTFGGGTKLEIKRTVAAPSVFIFPPSDEQLKSGTASVVCLLNNFYPREAKVQWKVDNALQSGNSQESVTEQDSKDSTYSLSSTLTLSKADYEKHKVYACEVTHQGLSSPVTKSFNRGEC
By EC50 (read off the curve) is commonly meant the concentration at which the effect is half-maximal. Lower therefore signals an effect from little substance. For the molecule B1, the entries for the “EC50 (read off the curve)” value in experiment [1], in experiment [2] and in experiment [3] were about 1 nM, about 2 nM and about 0.3 nM, respectively.

B2: GPC3-45H6E8-z21p1-hIgG1LALAPG (bispecific antibody)
heavy chain (anti-GPC3 heavy chain hIgG1 LALAPG, (G4S)4 linker, 45H6E8-z21p1 scFv): QVQLVQSGAEVKKPGASVKVSCKASGYTFTDYEMHWVRQAPGQGLEWMGAIHPGSGGTAYNQKFKGRVTMTRDTSTSTVYMELSSLRSEDTAVYYCARYYSYAYWGQGTLVTVSSASTKGPSVFPLAPSSKSTSGGTAALGCLVKDYFPEPVTVSWNSGALTSGVHTFPAVLQSSGLYSLSSVVTVPSSSLGTQTYICNVNHKPSNTKVDKKVEPKSCDKTHTCPPCPAPEAAGGPSVFLFPPKPKDTLMISRTPEVTCVVVDVSHEDPEVKFNWYVDGVEVHNAKTKPREEQYNSTYRVVSVLTVLHQDWLNGKEYKCKVSNKALGAPIEKTISKAKGQPREPQVYTLPPSREEMTKNQVSLTCLVKGFYPSDIAVEWESNGQPENNYKTTPPVLDSDGSFFLYSKLTVDKSRWQQGNVFSCSVMHEALHNHYTQKSLSLSPGKGGGGSGGGGSGGGGSGGGGSQVQLVQSGAEVKKPGASVKVSCKVSGYTLTDYYMQWVRQAPGKGLEWMGWIDPEQGDTEYAPKFQGRVTMTADTSTDTAYMELSSLRSEDTAVYYCTTGGNYVDWGQGTTVTVSSGGGGSGGGGSGGGGSDIQMTQSPSFLSASVGDRVTITCKASQNVGTAVAWYQQKPGKAPKLLIYSASNRYTGVPDRFSGSGSGTDFTLTISSLQPEDFATYFCQQYSSYPLLTFGQGTRLEIK
light chain: DIVMTQTPLSLSVTPGQPASISCRSSQSLVHSNGNTYLQWYLQKPGQSPQLLIYKVSNRFSGVPDRFSGSGSGTDFTLKISRVEAEDVGVYYCFQSIHVPYTFGGGTKLEIKRTVAAPSVFIFPPSDEQLKSGTASVVCLLNNFYPREAKVQWKVDNALQSGNSQESVTEQDSKDSTYSLSSTLTLSKADYEKHKVYACEVTHQGLSSPVTKSFNRGEC
For the molecule B2, the “EC50 (read off the curve)” value in [1] is about 1 nM; in [2] it was about 2 nM; in experiment [3] it was about 0.3 nM.

B3: 91A11D11-hIgG1 LALAPG (antibody)
heavy: QVQLQQPGAELVRPGTSVKLSCKASGYTFTSYWMNWVKQRPGQGLEWIGMIDPSDSETHYNQMFKDKATLTVDESSSTAYMQLSSLTSEDSAVYFCARWTLVVAHFFDYWGQGTTLTVSSASTKGPSVFPLAPSSKSTSGGTAALGCLVKDYFPEPVTVSWNSGALTSGVHTFPAVLQSSGLYSLSSVVTVPSSSLGTQTYICNVNHKPSNTKVDKKVEPKSCDKTHTCPPCPAPEAAGGPSVFLFPPKPKDTLMISRTPEVTCVVVDVSHEDPEVKFNWYVDGVEVHNAKTKPREEQYNSTYRVVSVLTVLHQDWLNGKEYKCKVSNKALGAPIEKTISKAKGQPREPQVYTLPPSREEMTKNQVSLTCLVKGFYPSDIAVEWESNGQPENNYKTTPPVLDSDGSFFLYSKLTVDKSRWQQGNVFSCSVMHEALHNHYTQKSLSLSPGK
light: DIVLTQSPASLAVSLGQRATISCRASETVEYYGPSLLQWYQQKPGQPPKLLIYGASNVESGVPARFSGSGSGTDFSLNIHPVEEDDVAMYFCQQSRKVPYTFGGGTKLEIKRTVAAPSVFIFPPSDEQLKSGTASVVCLLNNFYPREAKVQWKVDNALQSGNSQESVTEQDSKDSTYSLSSTLTLSKADYEKHKVYACEVTHQGLSSPVTKSFNRGEC
notes: also called 91A11D11 chimeric Ab
As usually defined, the EC50 is the concentration at which the effect is half-maximal. As usually defined, the Kd is the constant that tells how readily two partners part at equilibrium. High values mean weaker binding, low ones tighter binding. Usually koff stands for a measure of how fast the partners let go of each other. A higher koff goes with a short-lived complex. As a reminder, the kon is the rate constant with which the complex forms. As to B3, the EC50 was determined as 0.41 nM with hCD16A-158F-his protein [4], 0.12 nM in the experiment with hCD16A-158V-his protein [5], 0.45 nM in experiment [11] and 0.46 nM in experiment [12]. For the same molecule, the binding result is reported as “no binding (tested: 100 nM)” in [6], “no binding (tested: 20 nM)” in [9], “no binding (tested: 100 nM)” in experiment [10] and “no binding (tested: 20 nM)” in [13]. In addition, the Kd with hCD16A-158F-his protein [7] stood at 0.138 nM; with hCD16A-158V-his protein [8], 0.223 nM. The koff worked out at 0.00102 s⁻¹ in the experiment with hCD16A-158F-his protein [7] and 0.00142 s⁻¹ with hCD16A-158V-his protein [8]. Besides, the figures for the kon with hCD16A-158F-his protein [7] and with hCD16A-158V-his protein [8] were 7.39e+06 M⁻¹ s⁻¹ and 6.93e+06 M⁻¹ s⁻¹, respectively.

Values taken from patent US20260242485A1 (LEPU BIOPHARMA, published 2026).
